Experimental data published in PMC6876245.
Read-outs that look alike come from different tables or passages of the source.

B1: hT12 (ssDNA)
DNA: GGTTAGGGTTAG
B2: hT72 (ssDNA)
DNA: GGTTAGGGTTAGGGTTAGGGTTAGGGTTAGGGTTAGGGTTAGGGTTAGGGTTAGGGTTAGGGTTAGGGTTAG

Legend:
[1] = target: T1, POT1 H266L;TPP1 (human;human, UniProt Q9NUX5;Q96AP0 1-634;3-248, H266L|); assay: EMSA
Target sequence in this assay (Q9NUX5 whole entry H266L, chain 1 of 2): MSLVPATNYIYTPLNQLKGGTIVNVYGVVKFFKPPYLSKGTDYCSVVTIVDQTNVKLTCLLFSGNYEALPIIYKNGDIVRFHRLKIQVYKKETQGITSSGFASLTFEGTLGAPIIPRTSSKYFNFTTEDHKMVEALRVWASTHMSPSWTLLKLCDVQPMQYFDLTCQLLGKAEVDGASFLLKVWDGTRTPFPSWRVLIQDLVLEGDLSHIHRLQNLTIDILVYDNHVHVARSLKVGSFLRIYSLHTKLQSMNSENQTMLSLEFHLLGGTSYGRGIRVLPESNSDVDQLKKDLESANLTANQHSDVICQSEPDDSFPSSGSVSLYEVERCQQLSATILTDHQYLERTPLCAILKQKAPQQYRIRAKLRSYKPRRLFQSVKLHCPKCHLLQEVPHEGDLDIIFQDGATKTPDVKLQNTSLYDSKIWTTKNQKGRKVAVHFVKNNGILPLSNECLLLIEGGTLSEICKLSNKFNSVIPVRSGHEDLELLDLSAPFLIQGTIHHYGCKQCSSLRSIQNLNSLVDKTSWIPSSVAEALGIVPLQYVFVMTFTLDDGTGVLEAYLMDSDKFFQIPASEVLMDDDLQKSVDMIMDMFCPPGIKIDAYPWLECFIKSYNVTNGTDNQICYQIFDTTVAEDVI
Target sequence in this assay (Q96AP0 3-248, chain 2 of 2): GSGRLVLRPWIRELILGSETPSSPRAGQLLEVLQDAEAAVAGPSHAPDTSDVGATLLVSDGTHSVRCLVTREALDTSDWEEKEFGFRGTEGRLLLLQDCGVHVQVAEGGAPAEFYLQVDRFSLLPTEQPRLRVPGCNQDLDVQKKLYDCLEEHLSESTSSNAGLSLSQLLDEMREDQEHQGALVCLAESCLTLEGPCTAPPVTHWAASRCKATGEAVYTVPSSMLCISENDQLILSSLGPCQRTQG

[2] = target: T2, POT1;TPP1 (human;human, UniProt Q9NUX5;Q96AP0 1-634;3-248, |); assay: EMSA
[3] = target: T3, POT1 Y36N;TPP1 (human;human, UniProt Q9NUX5;Q96AP0 1-634;3-248, Y36N|); assay: EMSA
Target sequence in this assay (Q9NUX5 whole entry Y36N, chain 1 of 2): as the sequence (Q9NUX5 whole entry H266L, chain 1 of 2) above, with Y36N, L266H counted along it
Target sequence in this assay (Q96AP0 3-248, chain 2 of 2): as the sequence (Q96AP0 3-248, chain 2 of 2) above

[4] = target: T4, POT1-N (human, UniProt Q9NUX5 1-340); assay: hydroxyl radical footprinting MS
T4 sequence: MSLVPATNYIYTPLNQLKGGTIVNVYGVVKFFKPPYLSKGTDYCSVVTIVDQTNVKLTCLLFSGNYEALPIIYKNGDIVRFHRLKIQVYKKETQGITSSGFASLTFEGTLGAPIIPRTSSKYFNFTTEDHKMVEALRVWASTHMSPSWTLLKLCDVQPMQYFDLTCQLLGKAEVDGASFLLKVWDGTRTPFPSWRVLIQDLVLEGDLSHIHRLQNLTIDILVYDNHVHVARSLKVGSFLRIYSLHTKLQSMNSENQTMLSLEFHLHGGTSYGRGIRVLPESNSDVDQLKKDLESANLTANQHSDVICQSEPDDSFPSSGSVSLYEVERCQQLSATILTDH

[5] = target: T2, POT1;TPP1; assay: EMSA; remark: listed apart in the source
[6] = target: T4, POT1-N; assay: hydroxyl radical footprinting MS; remark: listed apart in the source
[7] = target: T1, POT1 H266L;TPP1; assay: stopped-flow CD
Target sequence in this assay (Q96AP0 3-248, stated change not applied, one chain of several): as the sequence (Q96AP0 3-248, chain 2 of 2) above

[8] = target: T3, POT1 Y36N;TPP1; assay: EMSA; remark: listed apart in the source
Target sequence in this assay (Q96AP0 3-248, stated change not applied, one chain of several): as the sequence (Q96AP0 3-248, chain 2 of 2) above

T2 sequence (Q96AP0 3-248, one chain of several): as the sequence (Q96AP0 3-248, chain 2 of 2) above

Binder	Kd [1] [nM]	Kd [2] [nM]	Kd [3] [nM]	binding result [4]	apparent K (half saturation) [5] [nM]	binding result [6]	binding result [7]	apparent K (half saturation) [8] [nM]
B1	29.1 ± 9.3	1 ± 0.5	2.2 ± 1.1	binds				
B2					6.9 ± 0.6	binds	binds	4.5 ± 0.4
